Here are results for three substances from paper PMC548802.

Test [1] deals with tetranectin with substitution of threonine 149 with tyrosine (TN^T149Y) (human) (UniProt P05452). Kind of test: ELISA. In general terms: ELISA stands for enzyme-linked immunosorbent assay.
Test [2] addresses tetranectin in which lysine 148 was replaced with alanine (TN^K148A) (human) (UniProt P05452). Description: ELISA.

The substance human plasminogen (natural protein) had an ELISA specific binding (OD 450, binding to BSA subtracted) in test [1] of 1.73 OD 450.

Consider “recombinant human angiostatin containing kringle domains 1-4 (AST^K1-4) (domain or fragment)”, for which the ELISA specific binding (OD 450, binding to BSA subtracted) in test [1] amounted to 1.83 OD 450; in test [2] it was 0.06 OD 450.

In test [1], “recombinant human angiostatin containing kringle domains 1-3 (AST^K1-3) (domain or fragment)” had an ELISA specific binding (OD 450, binding to BSA subtracted) of 0.43 OD 450.
